# Literature values as cited in publication PMC10162908.
# Target: EED (Homo sapiens) (UniProt O75530)
# Chain of UniProt O75530 (O75530 2-441): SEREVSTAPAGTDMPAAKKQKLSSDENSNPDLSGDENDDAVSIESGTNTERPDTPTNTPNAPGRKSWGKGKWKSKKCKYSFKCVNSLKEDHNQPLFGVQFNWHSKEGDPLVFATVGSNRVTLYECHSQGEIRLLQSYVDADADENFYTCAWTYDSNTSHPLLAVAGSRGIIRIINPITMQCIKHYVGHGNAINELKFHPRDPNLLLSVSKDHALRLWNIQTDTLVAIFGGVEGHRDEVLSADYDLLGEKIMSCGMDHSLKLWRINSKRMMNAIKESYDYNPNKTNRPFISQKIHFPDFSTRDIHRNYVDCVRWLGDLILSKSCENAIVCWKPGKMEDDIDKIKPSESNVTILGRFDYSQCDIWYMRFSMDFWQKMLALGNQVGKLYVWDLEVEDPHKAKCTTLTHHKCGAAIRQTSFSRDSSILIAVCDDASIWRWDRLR
substance,measurement,value
Jarid2 K116me3 peptide 114-118 (from UniProt Q92833),Kd,8.82 µM
